Results: article PMC4895385, “The ubiquitin E3 ligase TRAF6 exacerbates pathological cardiac hypertrophy via TAK1-dependent signalling” (Nature Communications, 2016)

Biological target: T1, FLAG-tagged TAK1 (pcDNA5-FLAG-TAK1) (human, UniProt O43318-2 1-579)
T1 construct: TAK1 (MAP3K7), human, gene cloned into pcDNA5-FLAG-C1; the truncates end at residue 579, so the 579-residue isoform is meant; source: HEK293T, transfected, in lysate; immunopurified from HEK293T (eluted with FLAG peptide) for the GST pull-down
T1 sequence (looked up): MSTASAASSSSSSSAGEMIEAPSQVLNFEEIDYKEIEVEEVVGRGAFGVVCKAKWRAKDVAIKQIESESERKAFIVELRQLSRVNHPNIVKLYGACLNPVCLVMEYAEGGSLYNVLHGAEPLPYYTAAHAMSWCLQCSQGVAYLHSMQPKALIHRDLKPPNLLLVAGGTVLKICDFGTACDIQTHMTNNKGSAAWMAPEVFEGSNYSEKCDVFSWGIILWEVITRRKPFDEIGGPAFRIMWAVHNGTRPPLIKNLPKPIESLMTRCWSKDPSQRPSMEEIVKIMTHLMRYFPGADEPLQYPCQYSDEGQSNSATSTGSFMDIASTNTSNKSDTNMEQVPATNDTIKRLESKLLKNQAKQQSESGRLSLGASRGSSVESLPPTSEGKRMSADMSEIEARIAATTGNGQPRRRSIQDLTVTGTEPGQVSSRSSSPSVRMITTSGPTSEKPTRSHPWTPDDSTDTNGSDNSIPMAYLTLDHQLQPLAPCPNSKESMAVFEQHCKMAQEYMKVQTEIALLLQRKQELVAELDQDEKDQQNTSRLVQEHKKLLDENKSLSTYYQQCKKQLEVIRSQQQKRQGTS
Assay: pull-down; GST-TRAF6 retained on glutathione-Sepharose 4B beads, incubated 4 h at 4 °C with immunopurified Flag-TAK1 from HEK293T cells; eluted with 20 mM reduced glutathione; blot with anti-FLAG
Conditions: both partners purified

- binding result: binds
B1: GST-tagged TRAF6 (pGEX-4T-1-GST-TRAF6) (natural protein, human, UniProt Q9Y4K3 1-522, looked up)
chain: MSLLNCENSCGSSQSESDCCVAMASSCSAVTKDDSVGGTASTGNLSSSFMEEIQGYDVEFDPPLESKYECPICLMALREAVQTPCGHRFCKACIIKSIRDAGHKCPVDNEILLENQLFPDNFAKREILSLMVKCPNEGCLHKMELRHLEDHQAHCEFALMDCPQCQRPFQKFHINIHILKDCPRRQVSCDNCAASMAFEDKEIHDQNCPLANVICEYCNTILIREQMPNHYDLDCPTAPIPCTFSTFGCHEKMQRNHLARHLQENTQSHMRMLAQAVHSLSVIPDSGYISEVRNFQETIHQLEGRLVRQDHQIRELTAKMETQSMYVSELKRTIRTLEDKVAEIEAQQCNGIYIWKIGNFGMHLKCQEEEKPVVIHSPGFYTGKPGYKLCMRLHLQLPTAQRCANYISLFVHTMQGEYDSHLPWPFQGTIRLTILDQSEAPVRQNHEEIMDAKPELLAFQRPTIPRNPKGFGYVTFMHLEALRQRTFIKDDTLLVRCEVSTRFDMGSLRREGFQPRSTDAGV
notes: TRAF6, human, gene cloned into pGEX-4T-1; pGEX-4T-1 normally places GST at the N-terminus (surmised); source: E. coli Rosetta (DE3), retained on glutathione-Sepharose 4B beads and washed
